In general, clearance refers to the rate of elimination divided by the concentration. As a reminder, the Kd is the equilibrium constant for the complex coming apart. A higher Kd goes with weaker binding.

Data set [1] can be described thus: Rat pharmacokinetics, intravenous dosing. It counts as in vivo, Sprague-Dawley rats. The note with it: single dose 1 mg/ml. How it is done:
(§1) In the rat, four pharmacokinetic parameters were measured for Gattex® (a GLP-2 peptide having the A2G mutation): CL, Vc, Vt and Q. The same pharmacokinetic parameters were also measured for GLP-2 peptibodies A, B, E, J, K, L, M, O and P. The data is shown in Table 4. Male Sprague-Dawley rats (3 animals per group) were injected intravenously either via a jugular vein or tail vein catheter. A singles dose of test article was injected at a dose level of 1 mg/ml. The test articles were formulated in PBS pH 7.4 at a concentration of Blood samples were taken 0.083, 0.167, 0.33, 0.5, 1, 2, 6, 24, 48, 72, 120, 168, 240, and 336 hours post dose. Blood samples were collected into heparinized tubes and centrifuged for 5 minutes at 2000 xg within 10 minutes of collection. 100 μL of plasma were transferred to a 1.5 ml Eppendorf tube containing 2 μL of 50 mM PMSF. After mixing, the plasma samples were frozen at −80° C. until analysis.

The nature of data set [2]: Rat pharmacokinetics, subcutaneous dosing. It counts as in vivo, Sprague-Dawley rats. The note with it: single dose 1 mg/ml. How it is done:
as §1, with “5.” for “4.”, “subcutaneously into the intra-scapular region of the animal.” for “intravenously either via a jugular vein or tail vein catheter.”, “[…]” for “1.5”, “mixing” for “mixing,”, “analysis. Meso Scale Discovery (MSD) ELISA was undertaken to assay for the concentration of the GLP-2 peptibodies.” for “analysis.”
A sandwich immunoassay was developed using either an anti-Human IgG1 Fc antibody or an anti-human albumin antibody for capture of the peptibody and a sulfotag labeled anti GLP-2 antibody for detection.

The target of data set [3] is T1, hFcRn (extracellular domain of the FcRN) (Homo sapiens, UniProt P55899).
T1 construct: made in house
T1 sequence (P55899 24-297 limits assumed): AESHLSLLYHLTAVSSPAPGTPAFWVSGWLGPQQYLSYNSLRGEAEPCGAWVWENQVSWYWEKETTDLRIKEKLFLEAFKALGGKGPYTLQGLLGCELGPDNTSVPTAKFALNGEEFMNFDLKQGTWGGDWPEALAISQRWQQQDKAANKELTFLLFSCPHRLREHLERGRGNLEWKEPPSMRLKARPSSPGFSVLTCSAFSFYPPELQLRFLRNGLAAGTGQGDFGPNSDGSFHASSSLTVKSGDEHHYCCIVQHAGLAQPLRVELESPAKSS
T1 sequence (P61769 21-119 partner): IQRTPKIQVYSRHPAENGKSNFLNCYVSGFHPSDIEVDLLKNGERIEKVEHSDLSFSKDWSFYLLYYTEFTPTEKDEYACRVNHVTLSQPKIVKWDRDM
The data set is described as follows: FcRn binding by surface plasmon resonance (Biacore). From the text: Binding to the Fc neonatal receptor (FcRN) allows for recycling of the molecules and leads to an extended in vivo serum half-life of the Fc fusion proteins. Recycling occurs as the molecules are passively taken into the cells and the pH of the endosomes is lower. That leads to binding of the Fc portion of the molecule to the FcRN. When the FcRN recycles back to the surface of the cell, the pH is then neutral and the protein is released back into the serum.
Binding to the extracellular domain of the FcRN was measured by surface plasmon resonance (SPR) using a Biacore system. Direct immobilization with FcRn was achieved via amine coupling of a CM5 chip with FcRn under the following conditions: • i) hFcRn (expressed and purified in house) is diluted in Acetate buffer pH 5.0 to 5 μg/mL. • ii) Immobilize 5 μg/mL of FcRn with target of 500 RU on CM5 chip in PBS pH 7.0 • iii) Final response 454 RU • iv) Running buffer: PBS-P+, pHed to 5.5
The kinetic binding study was done using the following protocol. Samples were diluted in PBS-P+ to 50, 25, 12.5, 6.25, 3.125, 1.56, 0.78, 0.39, 0 nM. The parameters were set as follows: • i) Association and Dissociation 300 s at Flow rate 30 μL/min • ii) Regeneration with 25 mM Tris, 150 mM NaCl pH 8.0 40 s at 60 μL/min
A measurement of the binding of the GLP-2 peptibodies to the Fc neonatal receptor (FcRN) was undertaken at pH 5.5 and pH 7.4.
For orientation: Surface plasmon resonance follows binding to a sensor surface in real time, without labels.

Data set [4] can be described thus: NanoDSF melting temperature / thermal stability. The note with it: for NanoDSF melting temperature 1: first transition; for NanoDSF melting temperature 2: second transition. Format: physicochemical. How it is done: Each of the GLP-2 peptibodies was tested by determining melting temperature with nanodifferential scanning fluorimetry (NanoDSF). NanoDSF is a measurement of protein stability over a range of temperatures, with a temperature ramp employed. The stability of tryptophan is measured by fluorescence, as reflected in a ratio of fluorescence at 350 nm to fluorescence at 330 nm. From the assay, one or more melting temperatures are determined. Because a protein in a certain state is understood to have a melting temperature, the number of melting temperatures observed reflects the number of different states.
(§2) Stability analysis was then performed using SEC-MALS and NanoDSF. For SEC-MALS, a Sepax Zenix C-150 column was used. The mobile phase buffer was 1× PBS with a final concentration of 400 mM NaCl. The flow rate was 0.8 mL per minute. 20 micrograms of total protein was injected. For NanoDSF, 10 microliters of sample was used, without normalization of the samples.
as §2
Background: DSF heats the sample and reads unfolding from a dye or from intrinsic fluorescence.

Data set [5] in a line: SEC-MALS (Sepax Zenix C-150) peak distribution. Format: physicochemical. How it is done:
A SEC-MALS assay was performed to determine the primary state (main peak) and its molecular weight. […] The GLP-2 peptibody O (albumin fusion) eluted at a molecular weight indicative of a monomer.
as §2, §2
A general note: Size exclusion chromatography separates by hydrodynamic size, large species first.

[6] abbreviates: Table 7 (Example 6), 0.5 mg/mL sample.
Where [7] appears, read: Table 7 (Example 6), 1.5 mg/mL sample.
[8] abbreviates: Table 7 (Example 6), 5 mg/mL sample.
[9] abbreviates: Table 7 (Example 6), 7.5 mg/mL sample.

For the compound `CC[C@H](C)[C@H](NC(=O)[C@H](Cc1ccccc1)NC(=O)[C@H](CC(=O)O)NC(=O)[C@H](CCCNC(=N)N)NC(=O)[C@H](C)NC(=O)[C@H](C)NC(=O)[C@H](CC(C)C)NC(=O)[C@H](CC(N)=O)NC(=O)[C@H](CC(=O)O)NC(=O)[C@H](CC(C)C)NC(=O)[C@@H](NC(=O)[C@@H](NC(=O)[C@H](CC(N)=O)NC(=O)[C@H](CCSC)NC(=O)[C@H](CCC(=O)O)NC(=O)[C@H](CC(=O)O)NC(=O)[C@H](CO)NC(=O)[C@H](Cc1ccccc1)NC(=O)[C@H](CO)NC(=O)CNC(=O)[C@H](CC(=O)O)NC(=O)CNC(=O)[C@@H](N)Cc1c[nH]cn1)[C@@H](C)O)[C@@H](C)CC)C(=O)N[C@@H](CC(N)=O)C(=O)N[C@@H](Cc1c[nH]c2ccccc12)C(=O)N[C@@H](CC(C)C)C(=O)N[C@H](C(=O)N[C@@H](CCC(N)=O)C(=O)N[C@H](C(=O)N[C@@H](CCCCN)C(=O)N[C@H](C(=O)N[C@H](C(=O)N[C@@H](CC(=O)O)C(=O)O)[C@@H](C)O)[C@@H](C)CC)[C@@H](C)O)[C@@H](C)CC` [Gattex], the clearance in data set [1] (male, Sprague-Dawley, plasma) is 23.2 mL/min/kg. Moreover, the Vc in data set [1] is reported as 2,235 mL/kg; in data set [2], 1,794 mL/kg. For the same compound, the CL in data set [2] is given as 51,649 mL/day/kg.
For the compound “GLP-2 peptibody P: fusion of GLP-2, a linker that is also a GLP-2 sequence, and human serum albumin 25-609; SEQ ID NO: 30”, in data set [1], the CL came out at 0.118 mL/min/kg, the Q was 0.491 mL/min/kg, the Vc is reported as 38.4 mL/kg and the Vt came to 0.0439 L/kg.
“GLP-2 peptibody M: GLP-2[A2G]-GGGGSGGGGS linker-IgG1 Fc (LALA); SEQ ID NO: 25” yielded a dissociation constant (Kd) in data set [3] (pH 5.5) of 1.81 nM. The “FcRN KD at pH 7.4” value in data set [3] is “No binding in range tested”. Besides, in data set [4], the “NanoDSF melting temperature 1” value is 1 = 67.3 °C and the “NanoDSF melting temperature 2” value was 2 = 79.9 °C. Also, in data set [5], the “SEC-MALS Zenix C-150 main peak” value is listed as 81.4% main peak, 148,500 g/mol. In data set [1], this compound had a CL of 0.0266 mL/min/kg, a Q of 0.127 mL/min/kg, a Vc of 12 mL/kg and a Vt of 0.0294 L/kg. Besides, in data set [2], the CL is reported as 60.2 mL/day/kg, the Vc was determined as 91.5 mL/kg and the ka result is given as “M (0.78 ka/day,”.
As to “GLP-2 peptibody O: fusion protein between GLP-2, a linker, and amino acids 25-609 of human serum albumin; SEQ ID NO: 28”, in data set [3] (pH 5.5), the “FcRN KD at pH 5.5” value is reported as “substantially higher KD” and the equilibrium dissociation constant (Kd) came to 1370 nM. Moreover, the “FcRN KD at pH 7.4” value in data set [3] is reported as “No binding in range tested”. For the same compound, in data set [4], the “NanoDSF melting temperature 1” value is 1 = 57.6 °C. In addition, the “SEC-MALS Zenix C-150 main peak” value in data set [5] was 89.5% main peak, 76,500 g/mol. In data set [1], this compound returned a CL of 0.0903 mL/min/kg, a Q of 0.9583 mL/min/kg, a Vc of 43.2 mL/kg and a Vt of 0.054 L/kg. Also, in data set [2], the CL worked out at 742 mL/day/kg, the Vc was 565 mL/kg and the ka entry is recorded as “O (1.26 ka/day,”.
“GLP-2 peptibody A: GLP-2[A2G] fused without linker to IgG1 Fc (LALA); SEQ ID NO: 13”: the affinity in data set [3] (pH 5.5), expressed as Kd, was 1.38 nM. For the same compound, in data set [3], the “FcRN KD at pH 7.4” value is given as “No binding in range tested”. For the same compound, in data set [4], the “NanoDSF melting temperature 1” value was 1 = 67.0 °C and the “NanoDSF melting temperature 2” value was 2 = 80 °C. Besides, in data set [1], the CL is 0.0396 mL/min/kg, the Q was determined as 0.0403 mL/min/kg, the Vc stood at 43 mL/kg and the Vt came out at 0.079 L/kg. Further, in data set [2], the CL is reported as 70.7 mL/day/kg, the Q turned out to be 0.0542 mL/min/kg, the Vc is recorded as 109 mL/kg and the Vt is 0.081 L/kg. Besides, the ka result in data set [2] is “A (0.45 ka/day,”.
Turning to “GLP-2 peptibody B264: GLP-2[A2G]-GGGGG linker-IgG1 Fc (LALA) without C-terminal lysine; SEQ ID NO: 1”, the “Thermal Stability (NanoDSF) 1” value in data set [4] (Table 6, 0.5 mg/mL sample) is 1 = 67.1 °C; in data set [4] (Table 6, 1.5 mg/mL sample), 1 = 67.0 °C; in data set [4] (Table 6, 5 mg/mL sample), 1 = 67.2 °C; in data set [4] (Table 6, 11 mg/mL sample), 1 = 67.5 °C; in data set [4] (setting [6]), 1 = 67.6 °C; in data set [4] (setting [7]), 1 = 67.6 °C. The “Thermal Stability (NanoDSF) 1” value is 1 = 67.7 °C in data set [4] (setting [8]) and 1 = 67.8 °C in data set [4] (setting [9]). The “Thermal Stability (NanoDSF) 2” value in data set [4] (Table 6, 0.5 mg/mL sample) was 2 = 75.2 °C; in data set [4] (Table 6, 1.5 mg/mL sample), 2 = 74.8 °C; in data set [4] (Table 6, 5 mg/mL sample), 2 = 75.0 °C; in data set [4] (Table 6, 11 mg/mL sample), 2 = 74.7 °C; in data set [4] (setting [6]), 2 = 80.2 °C; in data set [4] (setting [7]) it was 2 = 80.2 °C. Besides, the “Thermal Stability (NanoDSF) 2” value in data set [4] (setting [8]) is 2 = 80.7 °C; in data set [4] (setting [9]), 2 = 80.4 °C. Also, the “SEC LMW” value in data set [5] (Table 6, 0.5 mg/mL sample) was determined as 17.2% LMW; in data set [5] (Table 6, 1.5 mg/mL sample) it was 20.8% LMW; in data set [5] (Table 6, 5 mg/mL sample), 20.1% LMW; in data set [5] (Table 6, 11 mg/mL sample), 17.4% LMW; in data set [5] (setting [6]) it was 19.7% LMW; in data set [5] (setting [7]), 21.4% LMW. Further, the figures for the “SEC LMW” value in data set [5] (setting [8]) and in data set [5] (setting [9]) were 20.8% LMW and 19.9% LMW, respectively. The “SEC Main Peak” value in data set [5] (Table 6, 0.5 mg/mL sample) stood at 82.8% Main Peak; in data set [5] (Table 6, 1.5 mg/mL sample), 77.2% Main Peak; in data set [5] (Table 6, 5 mg/mL sample) it was 77.9% Main Peak; in data set [5] (Table 6, 11 mg/mL sample), 80.5% Main Peak; in data set [5] (setting [6]), 77.4% Main Peak; in data set [5] (setting [7]), 78.6% Main Peak. The “SEC Main Peak” value in data set [5] (setting [8]) was 79.2% Main Peak; in data set [5] (setting [9]), 80% Main Peak. Besides, the “SEC HMW” value in data set [5] (Table 6, 1.5 mg/mL sample) is 2.1% HMW; in data set [5] (Table 6, 5 mg/mL sample), 2% HMW; in data set [5] (Table 6, 11 mg/mL sample), 2.1% HMW; in data set [5] (setting [6]), 2.9% HMW.
